Experimental data published in patent publication US20260125468A1 (NONA BIOSCIENCES SUZHOU, published 2026).
Each block holds one binder with its values, some of them ahead of it.

Columns and labels:
[1] = target: T1, Biotinylated cynomolgus CD3e&d protein (Acro Biosystems, CDD-C82W6) (cynomolgus, UniProt Q95LI5 22-117; Q95LI8 22-105, biotinylated protein; chain and site not stated); experiment: BLI (Octet RED96e), biotinylated antigen on SA biosensors
T1 construct: Bought protein loaded on SA Octet biosensors
T1 sequence (Q95LI5 22-117, chain 1 of 2): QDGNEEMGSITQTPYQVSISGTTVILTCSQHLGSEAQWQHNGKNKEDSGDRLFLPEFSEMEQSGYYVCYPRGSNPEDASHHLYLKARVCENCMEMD
T1 sequence (Q95LI8 22-105, chain 2 of 2): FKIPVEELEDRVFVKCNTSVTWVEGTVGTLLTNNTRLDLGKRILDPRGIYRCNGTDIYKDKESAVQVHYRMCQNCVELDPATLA
Experimental: (§1) To determine the binding affinities of anti-CD3 antibodies to human or cynomolgus monkey CD3e&d heterodimer proteins, bio-layer interferometry (BLI) assays were carried out by using Octet® RED96e.
(§2) Biotinylated human CD3e&d protein (Acro Biosystems, CDD-H82W6) or biotinylated cynomolgus CD3e&d protein (Acro Biosystems, CDD-C82W6) was first loaded onto the surface of SA Octet biosensors (Sartorius, 18-5019) to reach capture levels between 0.5-0.8 nm. The loaded biosensors were then dipped in wells containing 2-fold serial dilutions of testing antibodies to detect association signals, followed by dissociation steps in wells containing kinetic buffer. The association phase was 180 seconds, and the dissociation phase was 900 seconds. The sensorgrams were recorded, and the reference signals were subtracted before curve fitting using ForteBio Data Analysis 11.0 software. Association rates (kon) and dissociation rates (koff) were calculated using a simple one-to-one Langmuir binding model. The equilibrium dissociation constant (KD) was calculated as the ratio of koff/kon.

[2] = target: T2, CD3 on T cells in cynomolgus monkey PBMCs (cynomolgus monkey, UniProt Q95LI5 22-198; Q95LI8 22-171; Q95LI7 23-181); experiment: FACS on cynomolgus monkey PBMCs, 2-fold serial dilution from 200 nM [A]
T2 construct: whole, on cells
T2 sequence (Q95LI5 22-198, chain 1 of 3): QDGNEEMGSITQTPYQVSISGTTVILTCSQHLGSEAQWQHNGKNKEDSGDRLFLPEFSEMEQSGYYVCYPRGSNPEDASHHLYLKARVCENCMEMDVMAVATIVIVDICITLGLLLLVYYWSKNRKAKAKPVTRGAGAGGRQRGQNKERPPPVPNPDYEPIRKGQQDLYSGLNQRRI
T2 sequence (Q95LI8 22-171, chain 2 of 3): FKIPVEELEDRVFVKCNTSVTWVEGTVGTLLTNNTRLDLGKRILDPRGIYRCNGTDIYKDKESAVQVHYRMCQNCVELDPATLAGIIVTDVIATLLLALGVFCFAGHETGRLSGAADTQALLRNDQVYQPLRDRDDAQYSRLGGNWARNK
T2 sequence (Q95LI7 23-181, chain 3 of 3): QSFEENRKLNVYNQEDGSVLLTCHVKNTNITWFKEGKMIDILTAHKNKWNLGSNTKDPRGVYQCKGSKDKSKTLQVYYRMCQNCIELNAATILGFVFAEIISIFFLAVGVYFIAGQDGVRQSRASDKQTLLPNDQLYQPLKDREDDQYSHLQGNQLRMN
Experimental: (§3) The cross reactivity to cynomolgus monkey for 3G11-HCAb (PR010991) and derived B7H4xCD3 PR008551 was evaluated by assays of binding activity to cynomolgus monkey PBMCs by FACS method and T cell mediated cytotoxicity with cynomolgus monkey PBMCs by RTCA method. In this example, Anti-CD3/TCR HCAb PR006361 derived from patent WO2016180982A1 and its derived B7H4xCD3 PR006001 were used as control antibodies. These antibodies are generated as described in Example 8.
(§4) Cynomolgus monkey PBMCs were isolated from 10 mL fresh cynomolgus monkey blood using Ficoll Paque Plus (Cytiva 17-1440-02) following the vendor's instructions. The recombinant antibodies were diluted from 200 nM to 11 different concentrations by 2-fold serial dilution. The diluted samples were incubated with cynomolgus monkey PBMCs for 1 hour, and then the secondary antibody (Alexa Fluor®488 AffinityPure Goat Anti-Human IgG (Fcγ Fragment Specific), Jackson ImmunoResearch, 109-545-098) was added and incubated for 1 hour. The cells were washed twice with staining buffer and subjected to flow cytometry. The data were processed by FlowJo v10 (FlowJo, LLC) and non-linear curve fitting analyzed by GraphPad Prism 8.

[3] = target: T3, hCD3e&g-his, Human CD3 epsilon & CD3 gamma Heterodimer Protein with His Tag (Acro Biosystems, CDG-H52W5) (Human, UniProt P07766 23-126; P09693 23-116); experiment: ELISA, plate coated with human CD3e&g-his at 1 µg/mL, anti-human IgG Fc-HRP [D]
T3 construct: Bought protein; also called human CD3E&G heterodimer protein; not shown: His Tag fused to C-terminus of CD3 epsilon chain
T3 sequence (P09693 23-116, one chain of several): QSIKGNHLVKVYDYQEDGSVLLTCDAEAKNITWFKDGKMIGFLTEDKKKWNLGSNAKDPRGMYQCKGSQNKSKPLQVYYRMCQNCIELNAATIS
Experimental: (§5) ELISA assays were conducted as briefly described: CD3 proteins were coated onto ELISA plates at 1 μg/mL; testing antibodies OKT3 and PR006364 (A1-HCAb) were diluted from 2 μg/mL to 8 different concentrations by 3-fold serial dilution, or testing antibodies PR006370 (SP34) and PR010991 (3G11-HCAb) were diluted from 100 nM to 11 different concentrations by 2-fold serial dilution; secondary antibody (anti-human IgG Fc-HRP) was used to detect PR006364, PR006370 and PR010991, and secondary antibody (anti-mouse IgG Fc-HRP) was used to detect OKT3 binding signal. The absorption signal at 450 nm (OD450) was recorded by plate reader (Molecular Devices, SpectraMax), and the data were processed and non-linear curve fitting analyzed by GraphPad Prism 8.

[4] = target: T4, hCD3e-his, Human CD3 epsilon Protein with His Tag (Acro Biosystems, CDE-H5223) (Human, UniProt P07766 23-126); experiment: ELISA, plate coated with human CD3e-his at 1 µg/mL, anti-human IgG Fc-HRP [E]
T4 construct: Bought protein; also called human CD3E monomeric protein; monomeric CD3E; not shown: His Tag
Experimental: as §5

[5] = target: T1, Biotinylated cynomolgus CD3e&d protein …; experiment: BLI (Octet RED96e), biotinylated antigen on SA biosensors, antibody 1.5-24 nM
Experimental: as §1, §2

[6] = target: T5, Biotinylated human CD3e&d protein (Acro Biosystems, CDD-H82W6) (human, UniProt P07766 23-126; P04234 22-105, biotinylated protein; chain and site not stated); experiment: as above
T5 construct: Bought protein loaded on SA Octet biosensors; also called human CD3 protein
Experimental: as §1, §2

[7] = target: T6, hCD3d-his, Human CD3 delta Protein with His Tag (Acro Biosystems, CDD-H5224) (Human, UniProt P04234 22-105); experiment: ELISA, plate coated with human CD3d-his at 1 µg/mL, anti-human IgG Fc-HRP [F]
T6 construct: Bought protein; also called monomeric CD3D; not shown: His Tag
Experimental: as §5

[8] = target: T7, cynoCD3e&d-his, Cynomolgus CD3 epsilon & CD3 delta Heterodimer Protein (Acro Biosystems, CDD-C52W4) (Cynomolgus, UniProt Q95LI5 22-117; Q95LI8 22-105); experiment: ELISA, plate coated with cyno CD3e&d-his at 1 µg/mL, anti-human IgG Fc-HRP [C]
T7 construct: Bought protein; also called cynomolgus CD3E&D heterodimer protein; not shown: His Tag fused to C-terminus of CD3 epsilon chain; Flag Tag fused to C-terminus of CD3 delta chain
T7 sequence (Q95LI5 22-117, stated change not applied, chain 1 of 2): as the sequence (Q95LI5 22-117, chain 1 of 2) above
T7 sequence (Q95LI8 22-105, stated change not applied, chain 2 of 2): as the sequence (Q95LI8 22-105, chain 2 of 2) above
Experimental: as §5

[9] = target: T8, hCD3e&d-his, Human CD3 epsilon & CD3 delta Heterodimer Protein with His Tag (Acro Biosystems, CDD-H52W1) (Human, UniProt P07766 23-126; P04234 22-105); experiment: ELISA, plate coated with human CD3e&d-his at 1 µg/mL, anti-human IgG Fc-HRP [B]
T8 construct: Bought protein; also called human CD3E&D heterodimer protein; not shown: His Tag fused to C-terminus of CD3 epsilon chain
Experimental: as §5

[10] = target: T5, Biotinylated human CD3e&d protein (Acro …); experiment: BLI (Octet RED96e), biotinylated antigen on SA biosensors, antibody 0.375-12 nM
Experimental: as §1, §2

human CD3e&d-llamaFc = target: T9, human CD3e&d-llamaFc; experiment: ELISA, plate coated with human CD3e&d-llamaFc at 1 µg/mL, anti-human IgG Fc-HRP [A]
T9 construct: also called hCD3e&d-llamaFc; Human CD3 epsilon & CD3 delta Heterodimer Protein fused with Llama Fc (Acro Biosystems, CDD-H5258); not shown: The llama Fc, any linker to it, and which chain or chains carry it
T9 epsilon: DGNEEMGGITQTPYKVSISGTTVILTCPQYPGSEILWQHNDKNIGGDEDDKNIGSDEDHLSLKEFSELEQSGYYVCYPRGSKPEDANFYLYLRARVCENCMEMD
T9 delta: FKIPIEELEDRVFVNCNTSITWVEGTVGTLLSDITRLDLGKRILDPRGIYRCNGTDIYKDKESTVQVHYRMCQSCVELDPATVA
Experimental: as §5

[11] = target: T10, CD3/TCR complex on Jurkat cells (ATCC, TIB-152) and Jurkat-NFAT-Luc reporter cells (human, UniProt P07766 23-207; P04234 22-171; P09693 23-182; P20963 22-164); experiment: FACS on Jurkat cells, purified antibody [A]
T10 construct: whole, on cells; also called CD3/TCR-positive Jurkat cells; TCR/CD3 complex
T10 sequence (P09693 23-182, chain 3 of 2): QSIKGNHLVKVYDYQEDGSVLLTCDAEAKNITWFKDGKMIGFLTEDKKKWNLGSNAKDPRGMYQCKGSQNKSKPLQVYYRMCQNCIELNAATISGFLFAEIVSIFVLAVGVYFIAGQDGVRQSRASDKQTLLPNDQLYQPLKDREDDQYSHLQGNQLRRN
T10 sequence (P20963 22-164, chain 4 of 2): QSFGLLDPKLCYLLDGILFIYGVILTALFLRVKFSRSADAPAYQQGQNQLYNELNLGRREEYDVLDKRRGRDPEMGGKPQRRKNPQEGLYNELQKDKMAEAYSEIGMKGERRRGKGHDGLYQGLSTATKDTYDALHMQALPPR
Experimental: The binding activities to target cells for the supernatants A1-monoFc (PR005860) and E2-monoFc (PR005861) were evaluated by FACS. The supernatants of the recombinant antibodies (i.e. A1-monoFc, E2-monoFc) were diluted from bulk solution to 8 different concentrations by 3-fold serial dilution. […] The cells were washed twice with staining buffer and subjected to flow cytometry. The data were processed by FlowJo v10 (FlowJo, LLC) and non-linear curve fitting analyzed by GraphPad Prism 8.
The binding activities to Jurkat and J.RT3-T3.5 cells for purified A1-HCAb (PR006364), E2-HCAb (PR006365) were determined by FACS, following the method described in Example 2. As shown in (A) and (B of FIG. 8, PR006364 and PR006365 can bind to Jurkat cells but not to J.RT3-T3.5 cells, which is consistent with the result in FIG. 1.

[12] = target: human CD3E&D heterodimer protein (construct not specified; FIG. 9A and FIG. 12) (human, UniProt P07766 23-126; P04234 22-105); experiment: ELISA on coated human CD3e&d heterodimer protein (construct not named on the sheet)
[13] = target: T2, CD3 on T cells in cynomolgus monkey …; experiment: FACS on cynomolgus monkey PBMCs, 2-fold serial dilution from 200 nM [B]
Experimental: as §3, §4

- binding result [1]: no binding (tested: 12.5-200 nM)
- binding result [2]: no binding (tested: 200 nM)
B1: PR006361, anti-CD3/TCR HCAb hIgG1(AAG) from WO2016180982A1 (antibody, V domains shown)
VH: EVQLVESGGGPVQAGGSLRLSCAASGRTYRGYSMGWFRQAPGKEREFVAAIVWSGGNTYYEDSVKGRFTISRDNAKNTMYLQMTSLKPEDSATYYCAAKIRPYIFKIAGQYDYWGQGTQVTVSS
notes: Control heavy-chain-only antibody from prior art; C220S and AAG mutations

- binding result [3]: no binding (tested: 100 nM)
- binding result [4]: no binding (tested: 100 nM)
- Kd [5]: < 0.001 nM
- koff [5]: < 1e-07 s⁻¹
- kon [5]: 708000 M⁻¹ s⁻¹
- Kd [6]: < 0.001 nM
- koff [6]: < 1e-07 s⁻¹
- kon [6]: 906000 M⁻¹ s⁻¹
- binding result [7]: no binding (tested: 100 nM)
- EC50 (read off the curve) [8]: ~2 nM
- EC50 (read off the curve) [9]: ~0.9 nM
B2: PR010991, anti-CD3 3G11-HCAb hIgG1(C220S, AAA) (antibody, V domains shown)
VH: RVHLAESGGGLVQAGGSLRLSCAASGSRLNDNAMAWFRQAPGKEREFVGSIFWTGGNTYYADAVKGRLTISRDNAKNALYLQMNSLKPEDTAVYYCAASRVVWYYCSGYGCSRAGDYVYWGQGTQVTVSS
notes: Heavy-chain-only antibody, human IgG1 Fc (C220S, L234A, L235A, G237A)

- binding result [13]: no binding (tested: 200 nM)
B5: PR006001, anti-B7H4xCD3 VH(PR006361)-Fc-scFv(PR003366), hIgG1(dCH1, KiH, LALA) (bispecific antibody)
chain 1: not shown
chain 2: EIVMTQSPASLSVSPGERATLSCRASQSVSSNLAWYQQKPGQAPRLLIYGASTRATGIPARVSGGGSGTEFTLTISSLQSEDFAVYYCQQYKNWPFTFGPGTKLEIKGGGGSGGGGSGGGGSGGGGSQVQLVQSGAEVKKPGSSMRVSCKASEDTFSSYAISWVRQAPGQGLEWMGGTAPIFGTTNYAQKFQGRVTITADKSTSTAYMELSSLRSEDTAVYYCARGGPYFDYWGQGTLVTVSSASEPKSSDKTHTCPPCPAPEAAGGPSVFLFPPKPKDTLMISRTPEVTCVVVDVSHEDPEVKFNWYVDGVEVHNAKTKPREEQYNSTYRVVSVLTVLHQDWLNGKEYKCKVSNKALPAPIEKTISKAKGQPREPQVCTLPPSREEMTKNQVSLSCAVKGFYPSDIAVEWESNGQPENNYKTTPPVLDSDGSFFLVSKLTVDKSRWQQGNVFSCSVMHEALHNHYTQKSLSLSPGK
notes: Control bispecific; anti-CD3 VH-Fc chain and anti-B7H4 scFv-Fc chain

Continued, binder first:

B3: PR006364, anti-CD3 A1-HCAb hIgG1(C220S, AAG) (antibody, V domains shown)
VH: RIRLVESGGGLVQAGGSLRLSCAASGRTSGIPAMAWFRQAPGKEREFVAMAWSGGGTIYGDSVKNRFTISRDNTQNTIFLQMNSLKPEDTALYYCAAGRSTSNRADQYNYWGQGTQVTVSS
notes: Heavy-chain-only antibody, VHH fused to conventional human IgG1 Fc (C220S, L234A, L235A, P329G)
- Kd [10]: 0.0342 nM
- koff [10]: 2.49e-05 s⁻¹
- kon [10]: 727000 M⁻¹ s⁻¹
- EC50 (read off the curve) (human CD3e&d-llamaFc): ~0.03 mg/L
- EC50 (read off the curve) [11]: ~2 nM
- EC50 (read off the curve) [12]: ~0.7 nM

B4: PR006365, anti-CD3 E2-HCAb hIgG1(C220S, AAG) (antibody, V domains shown)
VH: EVQLVESGGGLVQAGGSLRLSCAASGRTNGIPAMAWFRQAPGKEREFVAMAWSGGGTIYGDSVKNRFTISRNNAQNTISLQMSSLRPEDTALYFCAAGRTTSNKADHYNYWGQGTQVTVSS
notes: Heavy-chain-only antibody, human IgG1 Fc (C220S, L234A, L235A, P329G)
- EC50 (read off the curve) [11]: ~9 nM
